± gives the uncertainty stated by the source.

This data set in a line: amyloid nucleation score (Sup35N fusion, yeast selection) (log enrichment); library NNK3; higher = more nucleation; inactive = no reads after selection. Summed up: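 After 24 hours of induction with 100 μM copper sulfate, psi-negative yeast expressing peptides of 20 random codons fused to Sup35N were grown for 7 days at 30°C on medium lacking adenine and uracil. Input and output plasmid inserts were sequenced with Illumina, and sequences with under 100 input reads were discarded. Scores for nucleation are the DiMSum log enrichment of output over input reads, centred on the mode score of non-aggregating sequences.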
Regarding HGVPYAIEASMLMFYLTFWR, the amyloid nucleation score entry was “inactive”.
Turning to RYADHAYLVPKFGQTEQENV, the amyloid nucleation score result is “inactive”.
Next, SEFGPIEATSAHMFESPFKG: “inactive”; LFWSNLWRRDMNISVSNYWL: 1.69 ± 0.11.
CGTTVGFLMLYLSCIRWL: the amyloid nucleation score result was “inactive”.
Next, SVFRDSRPLLYDVNMVNGGG: “inactive”; RLKLMRP: “inactive”.
Regarding VPNSRIVTREGCWESACGIR, the amyloid nucleation score entry was “inactive”.
Under RRKRSQSE stands “inactive”; under CAESIRHRRP, “inactive”.
DCGSSCKSYPGKVVDNEMDE: the amyloid nucleation score entry was “inactive”.
On to VPGFGVLACCGQVLLFSHLF, for which the amyloid nucleation score result is “inactive”.
Next, WVLEE: “inactive”; RGIHEIGVMLKSVSQLE: “inactive”.
As for LHEVLF, the amyloid nucleation score entry is “inactive”.
For the substance AVCWLRMTYGLRLEVGSPVD, the amyloid nucleation score result is “inactive”.
Take YERSRMSVWRNT: the amyloid nucleation score entry is “inactive”.
Turning to AWKTLAHRQSWGGCNRA, the amyloid nucleation score entry is “inactive”.
As to PYNVSLFMLRMVSIFFVQHL, the amyloid nucleation score result was “inactive”.
As to LIGLRCMPLRV, the amyloid nucleation score result was “inactive”.
As for SVFFYKYQALIRNEGEK, the amyloid nucleation score result was “inactive”.
As to ITNVWSVFKIRIGNCGFGAG, the amyloid nucleation score was 1.9 ± 0.1.
Substance GRRRIRNCVSRACLMYIQHV returned an amyloid nucleation score of 0.434 ± 0.23.
With KSERLNLVGILVSLVRPVCL, the amyloid nucleation score result is “inactive”.
Regarding NWLDWYYPYLKMVIATGFND, the amyloid nucleation score entry was “inactive”.
Take DSLILWHGDANCSRLGYRGH: the amyloid nucleation score result is “inactive”.
Next, AGSPCWSNHHYMTKRDCRFS: “inactive”.
As for LNCIFLVKVIYWTRFTWSTY, the amyloid nucleation score result is “inactive”.
FTRNCSKWIVG: the amyloid nucleation score result is “inactive”.
For GDGYRQRVLLWMLVSAGPAS, the amyloid nucleation score entry was “inactive”.
Regarding RRLPSELYMSYHYHFFFKSG, the amyloid nucleation score result was “inactive”.
Under WDSMMYNMVKDDSGLWNHVE stands “inactive”; under IVFEMLPWPVG, -0.435 ± 1.9; under RCYKMLDLSILDIRYIVMLR, “inactive”.
DRAAMFSNSVQSCICTWMNI displayed an amyloid nucleation score of 2.17 ± 0.061.
For TSINFSMAIDLRSHQLERTV, the amyloid nucleation score turned out to be 0.479 ± 0.31.
On to EQYRSTTGLESL, for which the amyloid nucleation score was -0.2 ± 0.96.
For the substance ISSLGKKTW, the amyloid nucleation score result was “inactive”.
On to VFFFMELEYSYFEY, for which the amyloid nucleation score entry is “inactive”.
Under WGCEIRANLLITSWVSVTVG stands “inactive”; under YDWKNL, “inactive”; under PTPMNKKRHYHVDVASPFSL, “inactive”.
Regarding RLMLLVTPAISFMSF, the amyloid nucleation score result is “inactive”.
Under PHTSMDALEMSD stands “inactive”; under SHLSYYTFKWSSEATRAVPM, 1.82 ± 0.11; under RVYHLIWFFYYLYNGHFISS, “inactive”.
Take PRTSKFVAVAFKV: the amyloid nucleation score result is “inactive”.
Turning to CTLMIFGCN, the amyloid nucleation score entry was “inactive”.
For TNGKPFYFPLAVMMSG, the amyloid nucleation score result is “inactive”.
Consider YRGPVGIDSGVRS, for which the amyloid nucleation score entry was “inactive”.
With ILLIWCIFTSAKFQQTSFMT, the amyloid nucleation score entry was “inactive”.
TWIMALLMILFNKVFVSSTR: the amyloid nucleation score result is “inactive”.
Next, EVYYPDVNLLEPGAVKLGRH: “inactive”; LNKCLAGFIHMEVWILRMKL: “inactive”.
Regarding LYGVNSCLIH, the amyloid nucleation score result was “inactive”.
Take IALLHQKHIG: the amyloid nucleation score result was “inactive”.
FCQSFWLLQLARMPCYVESQ: the amyloid nucleation score entry is “inactive”.
On to VLVSVILYIYYDDCFYSWSF, for which the amyloid nucleation score result was “inactive”.
On to CNYWCDVGLYGSKAFERSAT, for which the amyloid nucleation score entry is “inactive”.
Consider HKMRRSLQFNEMGLFSPKVY, for which the amyloid nucleation score entry was “inactive”.
In turn, KLLCSLNLVIADEFLTKKGD returned an amyloid nucleation score of 1.85 ± 0.099.
As to RYDYFLFLIFSFLCTVDPMV, the amyloid nucleation score was -0.211 ± 0.31.
On to VLGNRRFSGLFGEYQGKTTG, for which the amyloid nucleation score is -0.593 ± 1.1.
Under FLLFFAKWCLY stands “inactive”; under YCNMVWT, “inactive”; under KISLISTNCLYMVFPYRYSR, 2.13 ± 0.06.
TRVHWHR had an amyloid nucleation score of 1.63 ± 0.1.
Next, SFLIGVV: “inactive”; NRATVYMTQAKGCCSALFQV: 0.315 ± 0.3; KRMLCWFINKVIYLRYLWQV: “inactive”.
As to NGVLSSA, the amyloid nucleation score entry is “inactive”.
As to NISSVVLGGGLRVGARRI, the amyloid nucleation score result was “inactive”.
As for YQWNIMLKIDCSIDVVVVSN, the amyloid nucleation score was 0.827 ± 0.27.
For NYVLPIVCL, the amyloid nucleation score result is “inactive”.
RKEVLYSYRNHLK: the amyloid nucleation score result was “inactive”.
ALGTSEGRLQLSYDNHGVVL: the amyloid nucleation score entry is “inactive”.
Next, NLWYAFMSFVVNDGHIRLGR: 1.1 ± 0.11.
On to LSECRKD, for which the amyloid nucleation score result is “inactive”.
Regarding FWRYAYNCYCGYSCDQIGDS, the amyloid nucleation score result is “inactive”.
Turning to SMTWSRIAFEIMWNSVCRLI, the amyloid nucleation score result was “inactive”.
Under NDSTHLRSRC stands “inactive”; under PTIKDLDTSIFGYLLGSVGD, “inactive”.
Next, SRDTVRVLNLLGRKALMRGQ: “inactive”.
Regarding ITLRDVGGHGANLWEGMQFM, the amyloid nucleation score result was “inactive”.
Take YLSVPVF: the amyloid nucleation score result was “inactive”.
With VYDMCGNLQWAL, the amyloid nucleation score entry was “inactive”.
Take FPRHCKPRCL: the amyloid nucleation score result is “inactive”.
Regarding CPNMPSSTGTKPSNVMVSFS, the amyloid nucleation score result was “inactive”.
On to KYPSYLNLSCVAVKYVWCSE, for which the amyloid nucleation score turned out to be 1.94 ± 0.071.
As for EWKVLLPNLLYPSYYAQNR, the amyloid nucleation score result is “inactive”.
Substance RAECSISSIIIYCAGRPSLI had an amyloid nucleation score of 1.07 ± 0.098.
Regarding FRRLSFMVVFGERKGVVSLG, the amyloid nucleation score entry was “inactive”.
PIYMYLFSTHVSNQFVKGAF: the amyloid nucleation score came to 3.08 ± 0.06.
Turning to ISVNALYNLMHKCNYNAKLR, the amyloid nucleation score result was “inactive”.
For LIGSYICYAVGLMVTLNNWW, the amyloid nucleation score result is “inactive”.
Consider GNKMVLVW, for which the amyloid nucleation score result is “inactive”.
For CRQVRFALLNFLAAG, the amyloid nucleation score entry was “inactive”.
Turning to LGAKILCNWRVVHDSSCQHL, the amyloid nucleation score entry was “inactive”.
For the substance YLVFFA, the amyloid nucleation score result was “inactive”.
As for LCTYVFYPIANSSALSLNKV, the amyloid nucleation score entry was “inactive”.
Take FAFLWCLDWLNRKRIMSRVE: the amyloid nucleation score was -1.34 ± 2.5.
For FNTIAIDTSLVGSNYAGATK, the amyloid nucleation score entry is “inactive”.
The substance GSGYVTGGSSLLRARWSRGG had an amyloid nucleation score of 1.26 ± 0.17.
For KPWGPGIIGSGSRIMTDVVE, the amyloid nucleation score result was “inactive”.
HYLRHHIAILSLATGLMETE: the amyloid nucleation score entry was “inactive”.
NSTFRFTVTRFCIAPSEYIG displayed an amyloid nucleation score of 0.509 ± 0.25.
As for RIVDGFLTW, the amyloid nucleation score entry was “inactive”.
With CFVDFYSWWLSITVQGLHNN, the amyloid nucleation score entry was “inactive”.
Next, LSFPYMMTIFCATRFTDPLM: “inactive”; LSSFHHRQVLHRAVAKPFTA: 0.245 ± 0.75.
Next, VVMACGFLGKRGDSGCLLVM: “inactive”.
The substance GMSICVPSKS returned an amyloid nucleation score of 0.179 ± 0.34.
As to ILCSSDCDSYSLQPLFGFPC, the amyloid nucleation score entry is “inactive”.
CSMSAIMYYSARFDV: the amyloid nucleation score result was “inactive”.
For the substance NLFGC, the amyloid nucleation score result was “inactive”.
As for FIYAC, the amyloid nucleation score result was “inactive”.
Turning to YLFTFVWQTTSLINVIVALI, the amyloid nucleation score result was “inactive”.
SLHNM: the amyloid nucleation score entry was “inactive”.
Next, KMTLYIFCLAFMLWESNQII: “inactive”; FSWFHRRSYSVVTSLCLMGR: “inactive”.
On to GPHRILIAVESMTYFEGEVW, for which the amyloid nucleation score entry was “inactive”.
For IPFTENSVPPFKGLTVSSNV, the amyloid nucleation score result was “inactive”.
Take LIRAVGFGGWILIAHWYIWN: the amyloid nucleation score result is “inactive”.
For the substance GIGVSESRCVTVIWYYGGAV, the amyloid nucleation score result is “inactive”.
NLDRLYI: the amyloid nucleation score entry was “inactive”.
KLLFLSYTYWWKSHFWRFRT: the amyloid nucleation score entry was “inactive”.
Next, MSKYVGRIGCLWGNSASRAR: “inactive”; CIRICNISFFL: 2.71 ± 0.075; AVWYRNI: 2.06 ± 0.057.
Regarding NVYELIDCGLTYQVYSYGSR, the amyloid nucleation score was 0.611 ± 0.24.
As to LSKLPTKMACPLMVRS, the amyloid nucleation score was 0.928 ± 0.24.
VVIIK: the amyloid nucleation score result is “inactive”.

The values above are taken from the supplement of paper PMC12042874.
